Data: patent publication US20250263502A1 (published 2025)

Experiments:
[1] = target: T1, ectodomain of human CD98hc (human, UniProt P08195 105-529); assay: ELISA, expression medium of VNAR-hFc on coated protein
T1 chain: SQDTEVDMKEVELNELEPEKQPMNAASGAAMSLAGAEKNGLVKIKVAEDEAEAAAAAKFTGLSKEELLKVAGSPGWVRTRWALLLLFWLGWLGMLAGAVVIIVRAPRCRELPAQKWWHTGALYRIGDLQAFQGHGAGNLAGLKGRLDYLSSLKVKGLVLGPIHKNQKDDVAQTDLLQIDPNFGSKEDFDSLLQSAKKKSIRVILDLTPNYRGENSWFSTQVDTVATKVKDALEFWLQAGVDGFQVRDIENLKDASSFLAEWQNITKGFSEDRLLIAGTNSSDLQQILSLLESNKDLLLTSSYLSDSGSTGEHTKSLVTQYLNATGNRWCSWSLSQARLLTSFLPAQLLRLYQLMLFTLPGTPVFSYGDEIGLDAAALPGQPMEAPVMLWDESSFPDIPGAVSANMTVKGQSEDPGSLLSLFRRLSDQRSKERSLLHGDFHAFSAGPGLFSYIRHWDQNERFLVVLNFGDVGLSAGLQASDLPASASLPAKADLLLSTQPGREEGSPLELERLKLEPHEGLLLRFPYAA

[2] = target: T1, ectodomain of human CD98hc; assay: ELISA, purified VNAR-Fc titrated on coated CD98hc
[3] = target: T1, ectodomain of human CD98hc; assay: ELISA, VNAR-hFc titrated on coated human CD98hc

B1: VNAR clone E12 fused N-terminally to human IgG1 Fc (VNAR-hFc) (Fc fusion)
chain: ARVDQTPQTITKEEGESLTINCVLRTQDPALASTSWYRKKSGSTREETISKGGRYVETVNSGSKSFSLRINDLTVEDSGTYRCNVYFLLAPTKTKLQGIDVYGDGTAVTVNA
notes: Bivalent VNAR-Fc from Expi293 cells; not shown: human IgG1 Fc (hinge, CH2 and CH3) as encoded by vector pFUSE-hIgG1e3-Fc2
[1]
  Binding [relative units]: 2.19 relative units
[2]
  EC50: 56 nM

B2: VNAR clone D1 fused N-terminally to human IgG1 Fc (VNAR-hFc) (Fc fusion)
chain: ARVDQTPQTITKEEGESLTINCVLRHNYSALASTSWYRKKSGSTREETISKGGRYVETVNSGSKSFSLRINDLTVEDSGTYRCNVYGISFIEEKIRYDFDVYGDGTAVTVNA
notes: Bivalent VNAR-Fc from Expi293 cells; also called D1-hFc; not shown: human IgG1 Fc (hinge, CH2 and CH3) as encoded by vector pFUSE-hIgG1e3-Fc2
[1]
  Binding [relative units]: 3.5 relative units
[2]
  EC50: 28 nM

B3: VNAR clone H7 fused N-terminally to human IgG1 Fc (VNAR-hFc) (Fc fusion)
chain: ARVDQTPQTITKEEGESLTINCVLRYNNPALASTSWYRKKSGSTREETISKGGRYVETVNSGSKSFSLRINDLTVEDSGTYRCNVYFFPSFLVDKLQSHDVYGDGTAVTVNA
notes: as for B1
[1]
  Binding [relative units]: 3.93 relative units
[2]
  EC50: 6 nM

B4: VNAR clone H6 fused N-terminally to human IgG1 Fc (VNAR-hFc) (Fc fusion)
chain: ARVDQTPQTITKEEGESLTINCVLRTHSNALASTSWYRKKSGSTREETISKGGRYVETVNSGSKSFSLRINDLTVEDSGTYRCNVYAFLEIQPNIYHEFDVYGDGTAVTVNA
notes: as for B1
[1]
  Binding [relative units]: 3.31 relative units
[2]
  EC50: 6 nM

B5: VNAR clone G3 fused N-terminally to human IgG1 Fc (VNAR-hFc) (Fc fusion)
chain: ARVDQTPQTITKETGESLTINCVLRDNNCALSTTYWYRKKSGSTNEENISKGGRYVETVNSGSKSFSLRINDLTVEDSGTYRCKVHFFPSFCNSTSIRSVDVYGGGTVVTVNA
notes: as for B1
[1]
  Binding [relative units]: 1.48 relative units
[2]
  EC50: 107 nM

B6: VNAR clone F1 fused N-terminally to human IgG1 Fc (VNAR-hFc) (Fc fusion)
chain: ARVDQTPQTITKEEGESLTINCVLRVHGRALASTSWYRKKSGSTREETISKGGRYVETVNSGSKSFSLRINDLTVEDSGTYRCNVYGLSSGDIEGVKKIDVYGDGTAVTVNA
notes: Bivalent VNAR-Fc from Expi293 cells; also called F1-hFc; not shown: human IgG1 Fc (hinge, CH2 and CH3) as encoded by vector pFUSE-hIgG1e3-Fc2
[1]
  Binding [relative units]: 3.76 relative units
[2]
  EC50: 3 nM

B7: F12 variant F12-H04 as VNAR-hFc fusion (Fc fusion)
chain: ARVDQTPQTITKEEGESLTINCVLRVHGRALASTSWYRKKSGSTREETISKGGRYVETVNSGSKSFSLRINDLTVEDSGTYRCNVYGLMQGDIEGVKKIDVYGDGTAVTVNA
notes: not shown: human IgG1 Fc (hinge, CH2 and CH3) as encoded by vector pFUSE-hIgG1e3-Fc2
[3]
  EC50: 20 nM

B8: F12 variant F12-A01 as VNAR-hFc fusion (Fc fusion)
chain: ARVDQTPQTITKEEGESLTINCVLRVHGRALASTSWYRKKSGSTREETISKGGRYVETVNSGSKSFSLRINDLTVEDSGTYRCNVNGLSSGDKEGVKKIDVYGDGTAVTVNA
notes: as for B7
[3]
  EC50: 10 nM

B9: F12 variant F12-C01 as VNAR-hFc fusion (Fc fusion)
chain: ARVDQTPQTITKEEGESLTINCVLRVHGRALASTSWYRKKSGSTREETISKGGRYVETVNSGSKSFSLRINDLTVEDSGTYRCNVYGLSSGDSEGVKKIDVYGDGTAVTVNA
notes: as for B7
[3]
  EC50: 30 nM

B10: F12 variant F12-E03 as VNAR-hFc fusion (Fc fusion)
chain: ARVDQTPQTITKEEGESLTINCVLRVHGRALASTSWYRKKSGSTREETISKGGRYVETVNSGSKSFSLRINDLTVEDSGTYRCNVNGLSSGDQEGVKKIDVYGDGTAVTVNA
notes: as for B7
[3]
  EC50: 40 nM

B11: F12 variant F12-B12 as VNAR-hFc fusion (Fc fusion)
chain: ARVDQTPQTITKEEGESLTINCVLRVHGRALASTSWYRKKSGSTREETISKGGRYVETVNSGSKSFSLRINDLTVEDSGTYRCNVNGLSSGDIEGVKKLDVYGDGTAVTVNA
notes: as for B7
[3]
  EC50: 10 nM

B12: F12 variant F12-G02 as VNAR-hFc fusion (Fc fusion)
chain: ARVDQTPQTITKEEGESLTINCVLRVHGRALASTSWYRKKSGSTREETISKGGRYVETVNSGSKSFSLRINDLTVEDSGTYRCNVYGLMNVDIEGVKKIDVYGDGTAVTVNA
notes: as for B7
[3]
  EC50: 10 nM

B13: VNAR clone F12 fused N-terminally to human IgG1 Fc (VNAR-hFc) (Fc fusion)
chain: ARVDQTPQTITKEEGESLTINCVLRVHGRALASTSWYRKKSGSTREETISKGGRYVETVNSGSKSFSLRINDLTVEDSGTYRCNVYGLSFGDIEGVKKIDVYGDGTAVTVNA
notes: Bivalent VNAR-Fc from Expi293 cells; also called F12-hFc; VNAR F12-hFc; not shown: human IgG1 Fc (hinge, CH2 and CH3) as encoded by vector pFUSE-hIgG1e3-Fc2
[1]
  Binding [relative units]: 3.99 relative units
[2]
  EC50: 12 nM

B14: F12 variant F12-G04 as VNAR-hFc fusion (Fc fusion)
chain: ARVDQTPQTITKEEGESLTINCVLRVHGRALASTSWYRKKSGSTREETISKGGRYVETVNSGSKSFSLRINDLTVEDSGTYRCNVNGLSSGDIEGVKKIDVYGDGTAVTVNA
notes: as for B7
[3]
  EC50: 30 nM
